“And” between values parts separate entries of the source, which are not always exact repeats. Identical values can stand only once.
T1: G protein of rabies virus CVS-11 strain (on virus) (rabies virus CVS-11 strain, UniProt O92284 20-524)
T1 sequence: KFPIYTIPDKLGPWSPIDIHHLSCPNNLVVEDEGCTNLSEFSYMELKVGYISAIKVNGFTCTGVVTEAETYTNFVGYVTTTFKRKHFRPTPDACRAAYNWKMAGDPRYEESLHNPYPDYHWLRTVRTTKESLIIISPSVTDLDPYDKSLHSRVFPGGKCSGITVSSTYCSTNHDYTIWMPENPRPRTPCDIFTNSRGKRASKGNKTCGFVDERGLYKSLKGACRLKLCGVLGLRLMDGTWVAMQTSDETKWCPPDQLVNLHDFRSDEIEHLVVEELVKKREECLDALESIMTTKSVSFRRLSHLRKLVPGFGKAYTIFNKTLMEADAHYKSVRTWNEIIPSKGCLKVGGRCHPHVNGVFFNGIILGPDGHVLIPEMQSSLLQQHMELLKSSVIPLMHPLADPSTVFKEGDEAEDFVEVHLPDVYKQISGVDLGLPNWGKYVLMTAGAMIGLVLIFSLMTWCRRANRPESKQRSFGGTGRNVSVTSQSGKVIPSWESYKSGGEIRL


Tests used:
Experiment in all cases: cell-based or functional assay
[1] = target: G protein of rabies virus Dog son (Dog, Mexico), on virus (rabies virus)
[2] = target: G protein of rabies virus Rv342 China (Cow/dog, China), on virus (rabies virus)
[3] = target: G protein of rabies virus RAC (Raccoon, Georgia, USA), on virus (rabies virus)
[4] = target: G protein of rabies virus 857r (Raccoon dog, Russia, Far East), on virus (rabies virus)
[5] = target: G protein of rabies virus AL Bat (Bat, California, USA), on virus (rabies virus)
[6] = target: G protein of rabies virus Gray FX-AZ (AZ fox) (Gray Fox, Arizona, USA), on virus (rabies virus)
[7] = target: G protein of EBLV 1 A09-3485 (Genotype 5), on virus (EBLV 1, Genotype 5)
[8] = target: G protein of rabies virus DR MX (Bat, Mexico), on virus (rabies virus)
[9] = target: G protein of rabies virus TX Coyote (Coyote, Texas, USA), on virus (rabies virus)
[10] = target: G protein of rabies virus LC NY (Bat, New York, USA), on virus (rabies virus)
[11] = target: G protein of rabies virus VA 399 (Bat, Virginia, USA), on virus (rabies virus)
[12] = target: G protein of rabies virus MI1625 (Bat, Tennessee, USA), on virus (rabies virus)
[13] = target: G protein of rabies virus Dog Arg (Dog, Argentina), on virus (rabies virus)
[14] = target: T1, G protein of rabies virus CVS-11 strain …
[15] = target: G protein of rabies virus TXFX (Gray fox, TX), on virus (rabies virus)
[16] = target: G protein of rabies virus TN-269 (Bat, Tennessee, USA), on virus (rabies virus)
[17] = target: G protein of ABV (SM 4476) (Australian bat lyssa, Genotype 7), on virus (Australian bat lyssa, Genotype 7)
[18] = target: G protein of rabies virus TX SK 4380 (Skunk, Texas, USA), on virus (rabies virus)
[19] = target: G protein of rabies virus China dog 2005 (Dog, China), on virus (rabies virus)

Binder	neutralizing activity (RFFIT) [1]	neutralizing activity (RFFIT), Titer [1]	neutralizing activity (RFFIT) [2]	neutralizing activity (RFFIT), Titer [2]	neutralizing activity (RFFIT) [3]	neutralizing activity (RFFIT), Titer [3]	neutralizing activity (RFFIT) [4]	neutralizing activity (RFFIT), Titer [4]	neutralizing activity (RFFIT) [5]	neutralizing activity (RFFIT), Titer [5]	neutralizing activity (RFFIT) [6]	neutralizing activity (RFFIT), Titer [6]	neutralizing activity (RFFIT) [7]	neutralizing activity (RFFIT), Titer [7]	neutralizing activity (RFFIT) [8]	neutralizing activity (RFFIT), Titer [8]	neutralizing activity (RFFIT) [9]	neutralizing activity (RFFIT), Titer [9]	neutralizing activity (RFFIT) [10]	neutralizing activity (RFFIT), Titer [10]	other results
antibody 2 (antibody, V domains shown) VH: EVQLVESGAEVKKPGASVKVSCKASGYTFTSYDISWVRQAPGQGLEWMGWISTYKGNTNFAQKFQDRVTLTTDTSTTTAYMELRSLTSDDTAVYYCARAKSHPFYDFWSAYYVPGAFDIWGQGTVVTVSS VL: not shown	8.8 IU/mL and 8800 IU/mg	1100	2.4 IU/mL and 11800 IU/mg	1300	1.07 IU/mL and 5370 IU/mg	145	2.7 IU/mL and 2700 IU/mg	54	7.6 IU/mL and 7590 IU/mg	1100	5.67 IU/mL and 28300 IU/mg	170	6.67 IU/mL and 33300 IU/mg	180	1.7 IU/mL and 1710 IU/mg	180	1 IU/mL and 5000 IU/mg	170	2.14 IU/mL and 10700 IU/mg	45	neutralizing activity (RFFIT) [11]: 2.78 IU/mL and 13900 IU/mg; neutralizing activity (RFFIT), Titer [11]: 50; neutralizing activity (RFFIT) [12]: 2.5 IU/mL and 12500 IU/mg; neutralizing activity (RFFIT), Titer [12]: 70; neutralizing activity (RFFIT) [13]: 0.43 IU/mL and 2120 IU/mg; neutralizing activity (RFFIT), Titer [13]: 170; neutralizing activity (RFFIT) [14]: 1.47 IU/mL and 7350 IU/mg; neutralizing activity (RFFIT), Titer [14]: 250; neutralizing activity (RFFIT) [15]: 1.85 IU/mL and 9260 IU/mg; neutralizing activity (RFFIT), Titer [15]: 250; neutralizing activity (RFFIT) [16]: 3.12 IU/mL and 15600 IU/mg; neutralizing activity (RFFIT), Titer [16]: 390; neutralizing activity (RFFIT) [17]: 1.56 IU/mL and 7780 IU/mg; neutralizing activity (RFFIT), Titer [17]: 210; neutralizing activity (RFFIT) [18]: 0.56 IU/mL and 2800 IU/mg; neutralizing activity (RFFIT), Titer [18]: 70; neutralizing activity (RFFIT) [19]: 0.46 IU/mL and 2320 IU/mg; neutralizing activity (RFFIT), Titer [19]: 13
antibody 1 (antibody, V domains shown) VH: VQLLQESGPGLAKPSETLSLICTVSGGSISRRRDYWGWIRQPPGRGLEWIGSFFHRGSTYYNPSLESRVSISVDPSKNQFSLHLSSVTVADTAVYYCARHPSTPFAEYLLLPDAFDSWGQGTLVTVSS VL: DIVMTQSPATLSVSPGERATLSCRASQSVRSSLAWYQQRPGQAPRLLISGASTRATDIPARLSGSGSGTEFTLTVSSLQSEDFAVYYCQQYSDWPLTFGGGTKVEIKR	2.7 IU/mL and 2720 IU/mg	340	0.5 IU/mL and 2540 IU/mg	280	0.7 IU/mL and 3520 IU/mg	95	2.8 IU/mL and 2800 IU/mg	56	7.6 IU/mL and 7590 IU/mg	1100	0.53 IU/mL and 2670 IU/mg	16	1.85 IU/mL and 9260 IU/mg	50	2.4 IU/mL and 2380 IU/mg	250	0.33 IU/mL and 1650 IU/mg	56	0.52 IU/mL and 2620 IU/mg	11	neutralizing activity (RFFIT) [11]: 0.56 IU/mL and 2780 IU/mg; neutralizing activity (RFFIT), Titer [11]: 10; neutralizing activity (RFFIT) [12]: 0.39 IU/mL and 1960 IU/mg; neutralizing activity (RFFIT), Titer [12]: 11; neutralizing activity (RFFIT) [13]: 0.36 IU/mL and 1810 IU/mg; neutralizing activity (RFFIT), Titer [13]: 145; neutralizing activity (RFFIT) [14]: 0.41 IU/mL and 2060 IU/mg; neutralizing activity (RFFIT), Titer [14]: 70; neutralizing activity (RFFIT) [15]: 0.41 IU/mL and 2070 IU/mg; neutralizing activity (RFFIT), Titer [15]: 56; neutralizing activity (RFFIT) [16]: 1.16 IU/mL and 5800 IU/mg; neutralizing activity (RFFIT), Titer [16]: 145; neutralizing activity (RFFIT) [17]: 0.4 IU/mL and 2000 IU/mg; neutralizing activity (RFFIT), Titer [17]: 54; neutralizing activity (RFFIT) [18]: 0.4 IU/mL and 2000 IU/mg; neutralizing activity (RFFIT), Titer [18]: 50; neutralizing activity (RFFIT) [19]: 0.43 IU/mL and 2140 IU/mg; neutralizing activity (RFFIT), Titer [19]: 12

Reference: patent publication US20190022211A1 (CELLTRION, published 2019)
